Reference: patent US20190142905A1 (UREKA SARL, published 2019)
Square brackets hold non-standard residues; d marks the D form. Ends that are not written are not given here. A^u = urea residue with alanine side chain

B1: Compound 57 (peptide)
peptide: HSQGTFTSDYSKYLDSRRAQDFVQXLXNT
modifications: A^u at position 25 (urea residue with alanine side chain); Nle (norleucine) at position 27
B2: Compound 55 (peptide)
peptide: HSQGTFTSDYSKYLDSRRAQDFXQWLXNT
modifications: A^u at position 23 (urea residue with alanine side chain); Nle (norleucine) at position 27
B3: Compound 35 (peptide)
peptide: HSQGTFTSDYSKYLDSRRAQDFVQWLXXT
modifications: Nle (norleucine) at position 27; A^u at position 28 (urea residue with alanine side chain)
B4: Compound 43 (peptide)
peptide: HXEGTFTSDVSSYLEGQAAKEFIAWLVKGRG
modifications: A^c at position 2 (N,N'-linked carbomyl / carbamate residue with alanine side chain)
B5: Compound 53 (peptide)
peptide: HSQGTFTSDYSKYLDSXRAQDFVQWLXNT
modifications: A^u at position 17 (urea residue with alanine side chain); Nle (norleucine) at position 27
B6: Compound 36 (peptide)
peptide: HSQGTFTSDYSKYLDSRRAQDFVQWLXNX
modifications: Nle (norleucine) at position 27; A^u at position 29 (urea residue with alanine side chain)
B7: Compound 51 (peptide)
peptide: HSQGTFTSDYSKYXDSRRAQDFVQWLXNT
modifications: A^u at position 14 (urea residue with alanine side chain); Nle (norleucine) at position 27
B8: Compound 58 (peptide)
peptide: HSQGTFTSDYSKYLDSRRAQDFVQWXXNT
modifications: A^u at position 26 (urea residue with alanine side chain); Nle (norleucine) at position 27
B9: Compound 52 (peptide)
peptide: HSQGTFTSDYSKYLDXRRAQDFVQWLXNT
modifications: A^u at position 16 (urea residue with alanine side chain); Nle (norleucine) at position 27

What was measured:
Assay in all cases: cell-based or functional assay
[1] = target: human glucagon receptor expressed in transfected CHO cells (human, UniProt P47871 26-477)
[2] = target: T1, mouse GLP-1 receptor endogenously expressed in βTC6 cells (mouse, UniProt O35659 22-463)
T1 sequence (looked up): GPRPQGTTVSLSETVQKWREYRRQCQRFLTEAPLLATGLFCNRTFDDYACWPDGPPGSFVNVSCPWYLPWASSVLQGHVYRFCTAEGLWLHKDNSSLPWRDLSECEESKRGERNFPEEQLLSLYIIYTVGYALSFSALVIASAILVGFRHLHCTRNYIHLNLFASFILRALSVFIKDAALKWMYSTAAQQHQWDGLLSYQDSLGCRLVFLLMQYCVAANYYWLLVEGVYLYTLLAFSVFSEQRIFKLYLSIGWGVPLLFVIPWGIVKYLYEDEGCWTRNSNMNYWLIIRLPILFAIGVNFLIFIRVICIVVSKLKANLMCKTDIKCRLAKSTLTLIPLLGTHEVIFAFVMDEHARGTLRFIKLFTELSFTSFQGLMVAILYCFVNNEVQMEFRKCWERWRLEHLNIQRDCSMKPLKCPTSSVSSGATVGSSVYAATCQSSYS

[3] = target: T1, mouse GLP-1 receptor endogenously …; remark: listed apart in the source

Binder	EC50, Glucagon Functional Assay (cAMP production, HTRF) [1] [nM]	EC50, GLP-1 Functional Assay (cAMP production, HTRF) [2] [nM]	% bioactivity of reference (reference compound 1) [3] [%]
B1	22	–	–
B2	34	–	–
B3	0.44	–	–
HAEGTFTSDVSSYLEGQAAKEFIAWLXKGRG (A^u at position 27 (urea residue with alanine side chain)) [Compound 7]	–	0.22	–
XAEGTFTSDVSSYLEGQAAKEFIAWLVKGRG (H^u at position 1 (urea residue with histidine side chain)) [Compound 12]	–	280	–
HAEGTFTSDVSSYLEGQAAKEFIAWLVXGRG (K^u at position 28 (urea residue with lysine side chain)) [Compound 46]	–	–	157
HAEGTFTSDVSSYLEGQAAKEFIAWLVKXRG (G^u at position 29 (urea residue with glycine side chain)) [Compound 25]	–	0.074	–
HAEGTFTSDVSSYLEGQAAKEFIAWLVKGRX (G^u at position 31 (urea residue with glycine side chain)) [Compound 27]	–	0.081	–
HAEGTFTSDVSSYXEGQAAKEFIAWLVKGRG (Y^u at position 14 (urea residue with tyrosine side chain)) [Compound 44]	–	0.048	150
HAEGTFTSDVSSYLEGQAAKEFIAWXVKGRG (A^u at position 26 (urea residue with alanine side chain)) [Compound 5]	–	0.42	–
B4	–	–	9
HAEGTFTSDVSSYLEGQXAKEFIAWLVKGRG (A^u at position 18 (urea residue with alanine side chain)) [Compound 45]	–	0.036	200
HAEGTFTSDVSSYLEGQAAKEFIXWLVKGRG (A^u at position 24 (urea residue with alanine side chain)) [Compound 2]	–	1.5	–
HAEGTFTSDVSSYLEGQAAKEFIAXLVKGRG (W^u at position 25 (urea residue with tryptophan side chain)) [Compound 4]	–	0.26	–
HAEGTFTSDVSSYLEGQAAKEFIAXLVKGRG (A^u at position 25 (urea residue with alanine side chain)) [Compound 3]	–	0.46	–
B5	0.67	–	–
B6	0.026	–	–
B7	68	–	–
H[A^u]EGTFTSDL[A^u]KQLEEEAVRLFIEWLKNGGPSSGAPPSKKKKKK [Compound 73]	–	0.34	–
B8	35	–	–
B9	34	–	–
